Results from PMC9596850, “Tonsillar Microbiome‐Derived Lantibiotics Induce Structural Changes of IL‐6 and IL‐21 Receptors and Modulate Host Immunity” (Advanced Science, 2022).
Read-outs that look alike come from different tables or passages of the source.

Key:
[1] = target: mouse IL-21 receptor protein with the Fc region of human IgG1 (mouse) (UniProt Q9JHX3); experiment: SPR; Biacore 8K; receptor immobilised on CM5 chip by amine coupling, 25 °C, PBS-P running buffer; analytes with 5% DMSO injected serially; steady-state affinity model
[2] = target: mouse IL-21 receptor protein with the Fc region of human IgG1 (mouse) (UniProt Q9JHX3); experiment: as above; remark: listed apart in the source

Kd [1]: 12.6 µM
Kd [2]: 29.4 µM
Substance: salivaricin A2 (peptide)
